Results from paper PMC4300165, “Highly thermostable GH39 β-xylosidase from a Geobacillus sp. strain WSUCF1” (BMC Biotechnology, 2014).

Tests used:
[1] = biological target: WSUCF1 β-xylosidase (GH39 β-xylosidase from Geobacillus sp. strain WSUCF1) (Geobacillus sp. strain WSUCF1); assay: SDS-PAGE without heat treatment, with zymogram; purified enzyme mixed with 2X SDS sample buffer, loaded on an 8-16% gradient SDS-PAGE gel without heating (230 kDa, active) or after 95°C for 2 min (58 kDa, inactive); tetramer inferred from the 4-fold increase in apparent mass
WSUCF1 β-xylosidase = biological target: T1, WSUCF1 β-xylosidase (Geobacillus zalihae, UniProt A0A7H1RXW2); assay: residual pNPX hydrolysis with added xylose; assay type: biochemical; conditions: pNPX 2.5 mg/ml stock as substrate, phosphate buffer pH 6.5, 70°C, 10 min; end-product inhibition
T1 construct: gene IC807_05610; full-length ORF of 1509 bp (about 502 residues); N-His SUMO fusion expressed in E. coli, tag cleaved with SUMO protease; 58 kDa, apparent tetramer of 230 kDa
T1 sequence (A0A7H1RXW2 2-503): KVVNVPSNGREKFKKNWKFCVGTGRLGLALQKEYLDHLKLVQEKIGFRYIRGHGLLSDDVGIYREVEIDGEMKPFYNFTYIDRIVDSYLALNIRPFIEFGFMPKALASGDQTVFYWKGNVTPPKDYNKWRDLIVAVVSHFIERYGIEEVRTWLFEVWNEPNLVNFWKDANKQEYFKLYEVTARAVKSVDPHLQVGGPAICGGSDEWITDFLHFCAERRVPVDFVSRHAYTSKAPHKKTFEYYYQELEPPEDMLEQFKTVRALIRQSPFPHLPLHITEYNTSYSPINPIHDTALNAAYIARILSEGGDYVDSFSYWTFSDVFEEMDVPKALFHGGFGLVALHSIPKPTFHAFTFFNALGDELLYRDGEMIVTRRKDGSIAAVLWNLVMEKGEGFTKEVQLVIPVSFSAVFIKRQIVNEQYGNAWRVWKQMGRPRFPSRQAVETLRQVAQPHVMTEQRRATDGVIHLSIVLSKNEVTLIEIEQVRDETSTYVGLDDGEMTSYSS

purified protein = substrate: O=[N+]([O-])c1ccc(O[C@@H]2OC[C@@H](O)[C@H](O)[C@H]2O)cc1; assay: purified protein; assay type: biochemical, Geobacillus zalihae; conditions: 50 mM phosphate buffer pH 6.5, 70°C, 0–15 mM substrate, Table 2 prints 2.3

## WSUCF1 β-xylosidase (GH39 β-xylosidase from Geobacillus sp. strain WSUCF1) (enzyme)
[1]
  stoichiometry N: 4

## OC1OC[C@@H](O)[C@H](O)[C@H]1O (stereo partly drawn) [xylose]
WSUCF1 β-xylosidase
  % activity retained at 300 mM: 50%

B1: WSUCF1 β-xylosidase (Geobacillus zalihae) (protein)
chain: KVVNVPSNGREKFKKNWKFCVGTGRLGLALQKEYLDHLKLVQEKIGFRYIRGHGLLSDDVGIYREVEIDGEMKPFYNFTYIDRIVDSYLALNIRPFIEFGFMPKALASGDQTVFYWKGNVTPPKDYNKWRDLIVAVVSHFIERYGIEEVRTWLFEVWNEPNLVNFWKDANKQEYFKLYEVTARAVKSVDPHLQVGGPAICGGSDEWITDFLHFCAERRVPVDFVSRHAYTSKAPHKKTFEYYYQELEPPEDMLEQFKTVRALIRQSPFPHLPLHITEYNTSYSPINPIHDTALNAAYIARILSEGGDYVDSFSYWTFSDVFEEMDVPKALFHGGFGLVALHSIPKPTFHAFTFFNALGDELLYRDGEMIVTRRKDGSIAAVLWNLVMEKGEGFTKEVQLVIPVSFSAVFIKRQIVNEQYGNAWRVWKQMGRPRFPSRQAVETLRQVAQPHVMTEQRRATDGVIHLSIVLSKNEVTLIEIEQVRDETSTYVGLDDGEMTSYSS
notes: full-length ORF of 1509 bp (about 502 residues); N-His SUMO fusion expressed in E. coli, tag cleaved with SUMO protease; 58 kDa, apparent tetramer of 230 kDa
Purified protein
  Km: 2380 µM
